Reference: patent US20080145339, “Adeno-associated virus AAV Rep78 major regulatory protein mutants thereof and uses thereof” (University of Arkansas, published 2008)

Biological target: T1, AAV Rep78 wild-type (adeno-associated virus 2, UniProt Q89268 SEQ:1-621)
T1 sequence: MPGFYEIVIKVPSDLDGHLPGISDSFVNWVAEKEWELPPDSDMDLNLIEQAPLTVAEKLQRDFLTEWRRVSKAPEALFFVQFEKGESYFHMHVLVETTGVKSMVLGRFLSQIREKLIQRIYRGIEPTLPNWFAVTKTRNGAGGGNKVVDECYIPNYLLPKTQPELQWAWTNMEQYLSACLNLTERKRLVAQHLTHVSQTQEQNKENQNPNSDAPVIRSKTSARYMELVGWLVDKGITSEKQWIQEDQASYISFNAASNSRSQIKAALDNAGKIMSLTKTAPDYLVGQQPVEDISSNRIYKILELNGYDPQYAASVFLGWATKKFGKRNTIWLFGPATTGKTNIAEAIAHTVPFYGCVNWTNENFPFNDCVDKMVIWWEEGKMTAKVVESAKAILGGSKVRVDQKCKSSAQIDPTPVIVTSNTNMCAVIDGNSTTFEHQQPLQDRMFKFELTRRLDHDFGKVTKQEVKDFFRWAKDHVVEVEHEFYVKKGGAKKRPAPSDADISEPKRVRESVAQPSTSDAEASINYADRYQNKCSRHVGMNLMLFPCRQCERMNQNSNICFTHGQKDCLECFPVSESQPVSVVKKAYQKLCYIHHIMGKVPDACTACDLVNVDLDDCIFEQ
Experiment: EMSA; minus strand strongly recognized
Details: tags: MBP fusion (pMALc2, amylose purified); label: 32P

B1: HPV-16 p97 minus strand nt 14-106 (ssDNA)
DNA: CATTGCAGTTCTCTTTTGGTGCATAAAATGTCTGCTTTTATACTAACCGGTTTCGGTTCAACCGATTTCGGTTACGCCCTTAGTTTTATACAT
modifications: [NONE]
B1: binds.
